In one test the target is T1, B-cat-Halo (UniProt P35222 1-781).
T1 sequence (looked up): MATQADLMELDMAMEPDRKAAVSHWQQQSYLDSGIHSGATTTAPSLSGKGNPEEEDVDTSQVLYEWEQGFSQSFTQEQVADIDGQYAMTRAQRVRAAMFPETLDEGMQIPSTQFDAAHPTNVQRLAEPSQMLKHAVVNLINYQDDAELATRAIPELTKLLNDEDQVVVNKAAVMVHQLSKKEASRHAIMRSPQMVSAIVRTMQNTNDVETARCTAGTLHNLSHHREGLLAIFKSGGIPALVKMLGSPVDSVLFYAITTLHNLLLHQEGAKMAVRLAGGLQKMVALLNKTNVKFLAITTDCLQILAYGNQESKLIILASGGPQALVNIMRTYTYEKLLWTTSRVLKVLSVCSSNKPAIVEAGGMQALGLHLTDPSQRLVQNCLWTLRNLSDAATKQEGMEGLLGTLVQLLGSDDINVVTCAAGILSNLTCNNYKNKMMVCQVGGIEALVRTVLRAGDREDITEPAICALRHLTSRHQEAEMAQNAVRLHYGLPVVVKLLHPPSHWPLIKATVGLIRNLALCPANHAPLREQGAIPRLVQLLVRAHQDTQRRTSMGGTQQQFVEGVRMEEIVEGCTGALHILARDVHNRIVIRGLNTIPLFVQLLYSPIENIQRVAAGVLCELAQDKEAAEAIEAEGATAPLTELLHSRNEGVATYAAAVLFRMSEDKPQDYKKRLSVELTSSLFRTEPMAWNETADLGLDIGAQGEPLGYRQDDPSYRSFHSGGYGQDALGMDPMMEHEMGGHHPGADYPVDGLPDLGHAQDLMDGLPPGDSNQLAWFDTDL
Put plainly: cell-based or functional assay.

In test [1] the target is T2, full-length beta-Catenin (Uniprot ID P35222) (Homo sapiens (Human), UniProt P35222 1-781).
T2 construct: also called bCat; B-Catenin
T2 sequence: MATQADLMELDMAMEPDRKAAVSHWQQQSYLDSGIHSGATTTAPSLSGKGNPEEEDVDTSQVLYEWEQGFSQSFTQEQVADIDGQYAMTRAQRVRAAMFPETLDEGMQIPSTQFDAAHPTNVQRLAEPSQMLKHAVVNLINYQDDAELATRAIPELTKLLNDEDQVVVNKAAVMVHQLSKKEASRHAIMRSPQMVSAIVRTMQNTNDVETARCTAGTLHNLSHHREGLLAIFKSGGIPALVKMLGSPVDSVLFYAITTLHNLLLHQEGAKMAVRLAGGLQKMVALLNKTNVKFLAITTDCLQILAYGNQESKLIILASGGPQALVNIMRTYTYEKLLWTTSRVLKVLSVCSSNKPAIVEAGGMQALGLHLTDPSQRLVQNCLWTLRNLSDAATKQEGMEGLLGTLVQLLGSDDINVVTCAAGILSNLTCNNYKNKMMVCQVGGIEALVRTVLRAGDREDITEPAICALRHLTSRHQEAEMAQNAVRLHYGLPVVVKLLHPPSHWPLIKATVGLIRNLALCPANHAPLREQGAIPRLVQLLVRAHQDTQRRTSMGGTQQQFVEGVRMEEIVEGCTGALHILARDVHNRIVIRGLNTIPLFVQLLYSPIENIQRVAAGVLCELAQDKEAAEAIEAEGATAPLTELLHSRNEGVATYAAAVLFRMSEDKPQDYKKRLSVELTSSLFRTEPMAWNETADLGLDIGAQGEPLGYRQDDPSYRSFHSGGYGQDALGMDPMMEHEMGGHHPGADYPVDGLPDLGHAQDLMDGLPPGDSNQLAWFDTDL
Put plainly: fluorescence polarization competition; displacement of 5FAM-TCF4(10-53) from full-length beta-catenin. The method, boiled down:
(§1)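 Readings followed a light-protected 60-minute incubation at 20° C. Each read was done in duplicate. Curves were fit with a 1:1 binding model including hill slope, and stated concentrations are final.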

Test [2] concerns the target T3, B-cat-Halo (NanoBRET construct expressed in HEK293 cells) (UniProt P35222 1-781).
T3 sequence (looked up): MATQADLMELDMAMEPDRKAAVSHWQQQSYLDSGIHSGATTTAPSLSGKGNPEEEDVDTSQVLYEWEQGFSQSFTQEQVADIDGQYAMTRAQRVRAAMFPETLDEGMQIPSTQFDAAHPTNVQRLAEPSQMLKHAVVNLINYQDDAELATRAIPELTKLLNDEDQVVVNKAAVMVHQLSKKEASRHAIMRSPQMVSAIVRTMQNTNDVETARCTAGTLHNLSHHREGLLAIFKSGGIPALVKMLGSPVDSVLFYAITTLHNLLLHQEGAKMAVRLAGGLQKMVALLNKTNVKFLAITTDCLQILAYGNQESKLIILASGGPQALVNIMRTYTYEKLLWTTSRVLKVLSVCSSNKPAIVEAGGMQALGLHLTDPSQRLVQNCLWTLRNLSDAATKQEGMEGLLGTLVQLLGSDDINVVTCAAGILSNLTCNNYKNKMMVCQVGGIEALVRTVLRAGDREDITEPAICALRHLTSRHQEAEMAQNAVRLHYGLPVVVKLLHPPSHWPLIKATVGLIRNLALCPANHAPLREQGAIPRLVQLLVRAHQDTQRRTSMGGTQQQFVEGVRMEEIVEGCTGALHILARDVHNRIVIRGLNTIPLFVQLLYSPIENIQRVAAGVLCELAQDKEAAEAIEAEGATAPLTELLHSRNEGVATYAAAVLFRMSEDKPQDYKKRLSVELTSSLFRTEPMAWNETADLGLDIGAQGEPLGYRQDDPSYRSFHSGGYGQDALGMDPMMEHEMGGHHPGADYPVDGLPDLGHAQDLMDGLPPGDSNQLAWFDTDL
Put plainly: cell-based or functional assay.

The target of test [3] is T4, beta-catenin in DLD1 TCF/LEF luciferase reporter cells (UniProt P35222 1-781).
T4 sequence (looked up): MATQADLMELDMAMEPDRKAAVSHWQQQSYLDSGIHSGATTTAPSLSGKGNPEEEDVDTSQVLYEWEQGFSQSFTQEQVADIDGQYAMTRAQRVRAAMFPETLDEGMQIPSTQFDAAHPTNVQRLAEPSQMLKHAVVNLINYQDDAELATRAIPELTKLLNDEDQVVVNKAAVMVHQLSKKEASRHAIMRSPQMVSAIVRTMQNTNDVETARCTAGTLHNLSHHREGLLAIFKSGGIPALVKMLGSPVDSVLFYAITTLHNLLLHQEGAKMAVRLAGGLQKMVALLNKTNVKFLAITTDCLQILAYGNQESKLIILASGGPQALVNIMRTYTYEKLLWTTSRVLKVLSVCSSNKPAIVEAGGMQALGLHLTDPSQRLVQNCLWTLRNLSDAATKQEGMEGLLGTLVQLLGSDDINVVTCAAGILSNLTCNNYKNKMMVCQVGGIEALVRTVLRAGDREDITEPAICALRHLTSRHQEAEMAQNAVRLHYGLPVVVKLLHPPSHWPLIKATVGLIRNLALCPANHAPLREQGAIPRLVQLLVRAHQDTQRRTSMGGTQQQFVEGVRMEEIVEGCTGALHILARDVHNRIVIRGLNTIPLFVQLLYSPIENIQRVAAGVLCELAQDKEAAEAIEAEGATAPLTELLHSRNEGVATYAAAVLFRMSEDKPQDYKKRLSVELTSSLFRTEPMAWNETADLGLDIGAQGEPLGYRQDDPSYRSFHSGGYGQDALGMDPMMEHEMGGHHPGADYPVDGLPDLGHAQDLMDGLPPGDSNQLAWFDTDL
As to the kind of experiment: cell-based or functional assay.

Test [4] concerns the target T5, full-length beta-Catenin (Uniprot ID P35222) (Homo sapiens (Human), UniProt P35222 1-781).
T5 construct: also called bCat; B-Catenin
T5 sequence: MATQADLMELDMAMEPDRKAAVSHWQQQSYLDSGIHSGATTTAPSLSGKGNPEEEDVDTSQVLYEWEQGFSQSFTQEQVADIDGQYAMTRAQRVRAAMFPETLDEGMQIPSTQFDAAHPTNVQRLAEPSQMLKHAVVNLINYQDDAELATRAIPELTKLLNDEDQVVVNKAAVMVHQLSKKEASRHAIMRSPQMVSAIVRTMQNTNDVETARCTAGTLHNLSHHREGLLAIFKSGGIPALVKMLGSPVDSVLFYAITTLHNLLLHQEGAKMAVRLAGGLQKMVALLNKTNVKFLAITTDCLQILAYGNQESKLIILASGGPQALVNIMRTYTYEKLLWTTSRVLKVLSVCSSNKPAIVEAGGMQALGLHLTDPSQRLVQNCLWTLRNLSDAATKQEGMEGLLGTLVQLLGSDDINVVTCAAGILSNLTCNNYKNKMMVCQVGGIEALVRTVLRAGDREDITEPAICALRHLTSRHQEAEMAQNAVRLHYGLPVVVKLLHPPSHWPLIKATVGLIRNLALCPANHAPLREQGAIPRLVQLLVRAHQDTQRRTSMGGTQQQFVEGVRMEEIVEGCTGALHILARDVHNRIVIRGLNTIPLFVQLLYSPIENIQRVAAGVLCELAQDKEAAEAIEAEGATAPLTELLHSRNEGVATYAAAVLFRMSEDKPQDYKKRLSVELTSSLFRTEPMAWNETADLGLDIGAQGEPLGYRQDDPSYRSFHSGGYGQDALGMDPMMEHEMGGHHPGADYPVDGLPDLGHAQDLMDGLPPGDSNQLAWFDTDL
As to the kind of experiment: FP competition: full-length beta-catenin 10 nM + 5FAM-TCF4(10-53) 10 nM. The method, boiled down: as §1

Starred links: 1 amine or outer side, 2 acyl side, 3 side chain; linkers in the order of their positions; H or OH if unused. Positions of bridges follow the written chain, without caps; N, C: chain ends. Non-standard residues stand in square brackets, D forms with d. Primed or numbered codes have the meaning given here. B5(6) = 2-amino-2-(pent-4-en-1-yl)hept-6-enoic acid (bis(4-pentenyl)glycine), stitching residue, C=CCCCC(CCCC=C)(N[*:1])C(=O)[*:2]; Bta = N[C@@H](Cc1csc2ccccc12)C(=O)O; αAllylPro = C=CC[C@@]1(C(=O)O)CCCN1; S8 = C=CCCCCCC[C@](C)(N)C(=O)O

Broadly, the EC50 is the concentration giving half of the maximal effect. The IC50 is the concentration that inhibits the measured activity by half.

B1: I-567 (peptide)
peptide: XDVXDDAAFNXFXQ
modifications: not fully specified; Ac-PL3-Asp-Val-B5-Asp-Asp-Ala-Ala-Phe-Asn-S8-Phe-BztA-Gln-NH2; N-terminal acetyl, C-terminal amide; non-natural: PL3(1), B5(4), S8(11), BztA(13); staples PL3(1)-B5(4) and B5(4)-S8(11)
On to B1, for which the “NanoBRET % inh @ 10 uM” value in the test with B-cat-Halo turned out to be 8.9%. In test [1], this molecule registered a half-maximal effective concentration (EC50) of 37 nM.

As to Ac-[αAllylPro]DL[B5(6)]DEAAFQ[S8]F[Bta]Q-NH2 (staple 1-4, 4-11, Stapled peptide composition) [I-505], in test [2], the “NanoBRET Abs IC50” value was found to be 4900 nM. Also, the “DLD1 4% Abs IC50” value in test [3] came to 9400 nM. Further, the concentration for half-maximal inhibition (IC50) in test [4] stood at 23 nM.

These data come from patent US20240116985A1 (published 2024).
